Reference: patent publication US20200087367A1 (ACCELERON PHARMA, published 2020)

Key:
Assay in all cases: SPR, captured hENG-hFc, soluble BMP10; '-' = Binding undetectable
[1] = target: T1, hENG(360-581)-hFc (human, UniProt P17813 360-581)
T1 construct: HEK 293, purified; not shown: linker and human IgG1 Fc domain
T1 sequence: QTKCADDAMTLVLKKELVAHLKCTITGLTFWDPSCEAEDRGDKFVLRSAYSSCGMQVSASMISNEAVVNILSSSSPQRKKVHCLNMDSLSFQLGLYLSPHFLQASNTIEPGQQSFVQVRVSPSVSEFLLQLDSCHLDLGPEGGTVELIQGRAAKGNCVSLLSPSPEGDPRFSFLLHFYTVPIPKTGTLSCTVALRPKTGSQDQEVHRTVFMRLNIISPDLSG
Protocol: (§1) SPR methodology was used to screen these hENG-hFc protein variants for high-affinity binding to human BMP9 and BMP10. In these experiments, captured hENG-hFc proteins were exposed to soluble BMP9 or BMP10 at 100 nM each.

[2] = target: T2, hENG(458-586)-hFc (human, UniProt P17813 458-586)
T2 construct: Expressed in COS cells, not purified; not shown: linker and human IgG1 Fc domain
T2 sequence: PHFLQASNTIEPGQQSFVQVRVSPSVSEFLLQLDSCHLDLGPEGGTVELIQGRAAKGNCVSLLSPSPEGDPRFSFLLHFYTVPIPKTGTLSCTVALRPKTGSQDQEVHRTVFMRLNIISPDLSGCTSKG
Protocol: as §1

[3] = target: T3, hENG(133-346)-hFc (human, UniProt P17813 133-346)
T3 construct: HEK 293, purified; not shown: linker and human IgG1 Fc domain
T3 sequence: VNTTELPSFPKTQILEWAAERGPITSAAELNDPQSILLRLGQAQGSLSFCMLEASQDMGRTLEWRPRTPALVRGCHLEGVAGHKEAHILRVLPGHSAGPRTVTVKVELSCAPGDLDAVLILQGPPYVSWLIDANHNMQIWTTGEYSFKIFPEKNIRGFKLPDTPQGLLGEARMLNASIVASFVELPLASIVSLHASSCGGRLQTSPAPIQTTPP
Protocol: as §1

[4] = target: T4, hENG(438-586)-hFc (human, UniProt P17813 438-586)
T4 construct: HEK 293, purified; not shown: linker and human IgG1 Fc domain
T4 sequence: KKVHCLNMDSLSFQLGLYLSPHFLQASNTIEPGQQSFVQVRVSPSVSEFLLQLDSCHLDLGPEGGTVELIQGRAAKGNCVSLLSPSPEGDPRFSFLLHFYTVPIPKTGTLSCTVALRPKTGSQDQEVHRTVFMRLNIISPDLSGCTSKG
Protocol: as §1

[5] = target: T5, hENG(360-586)-hFc (human, UniProt P17813 360-586)
T5 construct: HEK 293, purified; not shown: linker and human IgG1 Fc domain
T5 sequence: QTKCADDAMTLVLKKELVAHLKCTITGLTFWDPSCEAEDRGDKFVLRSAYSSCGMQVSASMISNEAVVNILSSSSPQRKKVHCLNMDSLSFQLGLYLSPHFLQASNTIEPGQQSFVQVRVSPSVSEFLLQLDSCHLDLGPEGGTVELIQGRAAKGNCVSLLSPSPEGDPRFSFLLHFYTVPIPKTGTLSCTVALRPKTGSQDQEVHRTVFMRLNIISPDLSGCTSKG
Protocol: as §1

[6] = target: T6, hENG(26-257)-hFc (human, UniProt P17813 26-257)
T6 construct: HEK 293, purified; not shown: linker and human IgG1 Fc domain
T6 sequence: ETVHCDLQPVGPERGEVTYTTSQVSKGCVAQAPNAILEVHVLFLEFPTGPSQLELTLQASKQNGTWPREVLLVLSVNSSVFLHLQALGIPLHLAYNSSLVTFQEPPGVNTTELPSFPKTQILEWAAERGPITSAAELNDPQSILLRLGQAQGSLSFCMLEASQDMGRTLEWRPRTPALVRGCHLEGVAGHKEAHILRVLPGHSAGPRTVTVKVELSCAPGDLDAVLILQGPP
Protocol: as §1

[7] = target: T7, hENG(61-346)-hFc (human, UniProt P17813 61-346)
T7 construct: HEK 293, purified; not shown: linker and human IgG1 Fc domain
T7 sequence: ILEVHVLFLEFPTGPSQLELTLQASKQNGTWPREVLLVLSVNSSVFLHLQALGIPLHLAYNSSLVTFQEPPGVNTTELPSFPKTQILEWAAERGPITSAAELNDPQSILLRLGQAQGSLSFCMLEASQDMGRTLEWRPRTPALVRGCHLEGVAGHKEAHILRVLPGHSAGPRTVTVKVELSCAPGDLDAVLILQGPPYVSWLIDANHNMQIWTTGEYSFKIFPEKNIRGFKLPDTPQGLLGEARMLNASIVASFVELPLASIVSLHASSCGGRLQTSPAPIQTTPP
Protocol: as §1

[8] = target: T8, hENG(129-346)-hFc (human, UniProt P17813 129-346)
T8 construct: HEK 293, purified; not shown: linker and human IgG1 Fc domain
T8 sequence: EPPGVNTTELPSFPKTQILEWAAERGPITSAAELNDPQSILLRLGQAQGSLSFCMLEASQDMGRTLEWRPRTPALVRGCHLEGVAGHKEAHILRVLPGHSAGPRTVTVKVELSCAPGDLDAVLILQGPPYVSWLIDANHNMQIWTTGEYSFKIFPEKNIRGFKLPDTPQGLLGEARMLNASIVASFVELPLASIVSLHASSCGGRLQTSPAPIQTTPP
Protocol: as §1

[9] = target: T9, hENG(26-332)-hFc (human, UniProt P17813 26-332)
T9 construct: HEK 293, purified; not shown: linker and human IgG1 Fc domain
T9 sequence: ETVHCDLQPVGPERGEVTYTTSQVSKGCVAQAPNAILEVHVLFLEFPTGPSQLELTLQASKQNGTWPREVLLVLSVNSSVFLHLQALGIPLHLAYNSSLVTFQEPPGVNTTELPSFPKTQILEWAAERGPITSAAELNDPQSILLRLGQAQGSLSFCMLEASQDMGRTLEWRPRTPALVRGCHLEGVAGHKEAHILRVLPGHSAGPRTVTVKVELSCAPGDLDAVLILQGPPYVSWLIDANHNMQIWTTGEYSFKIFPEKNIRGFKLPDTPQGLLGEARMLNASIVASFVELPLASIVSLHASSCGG
Protocol: as §1

- binding result [1]: no binding (tested: 100 nM)
- binding result [2]: no binding (tested: 100 nM)
- binding result [3]: no binding (tested: 100 nM)
- binding result [4]: no binding (tested: 100 nM)
- binding result [5]: no binding (tested: 100 nM)
- binding result [6]: no binding (tested: 100 nM)
- binding result [7]: no binding (tested: 100 nM)
- binding result [8]: no binding (tested: 100 nM)
- binding result [9]: no binding (tested: 100 nM)
B1: BMP10 (ligand)
chain: NAKGNYCKRTPLYIDFKEIGWDSWIIAPPGYEAYECRGVCNYPLAEHLTPTKHAIIQALVHLKNSQKASKACCVPTKLEPISILYLDKGVVTYKFKYEGMAVSECGCR
notes: also called hBMP-10; hBMP10
